Results: US20110020346A1

Key:
[1] = molecular target: mouse VEGF-A165 (mouse) (UniProt Q00731); test: ELISA with purified Fab (direct on coated antigen or solution binding), 25 C
[2] = molecular target: T1, murine VEGF (mVEGF) (mouse) (UniProt Q00731); test: method not stated, 25 C, unpublished results
T1 sequence (looked up): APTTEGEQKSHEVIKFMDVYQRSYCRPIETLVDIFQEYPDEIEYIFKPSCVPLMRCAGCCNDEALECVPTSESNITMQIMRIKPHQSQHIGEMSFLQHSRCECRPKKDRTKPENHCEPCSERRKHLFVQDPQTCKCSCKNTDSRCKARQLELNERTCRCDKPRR

Chain of Y0317 Fab (VH): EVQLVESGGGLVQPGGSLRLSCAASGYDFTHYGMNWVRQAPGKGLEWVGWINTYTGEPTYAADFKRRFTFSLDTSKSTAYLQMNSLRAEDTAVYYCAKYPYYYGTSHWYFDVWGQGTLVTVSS
Chain of Y0317 Fab (VL): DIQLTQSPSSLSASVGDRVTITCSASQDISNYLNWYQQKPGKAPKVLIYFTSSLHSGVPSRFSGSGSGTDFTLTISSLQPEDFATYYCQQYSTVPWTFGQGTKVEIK

value printed without a name (ELISA) [1]	Kd [2]	Substance
0.6 nM		G6 Fab
	300 nM	Y0317 Fab
